Assay results from patent US20250042949A1.

Target: recombinant human ACE2 receptor (SinoBiological) (human) (UniProt Q9BYF1)
Chain of UniProt Q9BYF1 (Q9BYF1 18-740 limits assumed): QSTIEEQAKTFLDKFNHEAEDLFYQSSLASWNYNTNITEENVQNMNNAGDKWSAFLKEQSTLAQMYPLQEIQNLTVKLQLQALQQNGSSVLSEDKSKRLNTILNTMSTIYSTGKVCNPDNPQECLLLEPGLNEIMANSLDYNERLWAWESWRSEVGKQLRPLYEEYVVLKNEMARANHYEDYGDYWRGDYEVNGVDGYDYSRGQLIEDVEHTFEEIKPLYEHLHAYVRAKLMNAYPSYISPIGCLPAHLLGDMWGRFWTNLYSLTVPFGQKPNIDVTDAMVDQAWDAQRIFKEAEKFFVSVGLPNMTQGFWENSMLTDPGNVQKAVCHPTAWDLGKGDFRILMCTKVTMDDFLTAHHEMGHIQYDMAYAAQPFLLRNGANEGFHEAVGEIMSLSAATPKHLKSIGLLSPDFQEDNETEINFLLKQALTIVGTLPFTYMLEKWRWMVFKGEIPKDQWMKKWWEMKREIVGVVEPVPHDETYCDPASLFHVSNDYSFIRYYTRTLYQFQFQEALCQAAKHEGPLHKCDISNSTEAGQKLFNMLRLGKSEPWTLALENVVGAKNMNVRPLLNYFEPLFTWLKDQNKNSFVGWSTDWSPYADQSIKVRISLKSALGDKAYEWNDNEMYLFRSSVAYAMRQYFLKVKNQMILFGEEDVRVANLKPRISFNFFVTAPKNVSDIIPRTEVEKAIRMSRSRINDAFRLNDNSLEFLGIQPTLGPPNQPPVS

Substance	fold higher binding activity than the reference Wuhan RBD-C-tag [fold]
RBD-omicron B.1.1.529 (RBD-C-tag) (other; other documents disagree on this pair)	4
RBD-omicron BA.5 (RBD-C-tag) (other; other documents disagree on this pair)	8
